Patent publication US20210388087A1 (Chugai, published 2021)
Where a chain is given by its changes, count along the chain named. Names and notes keep the numbering of the source. Blank lines part the entries; values can stand above or below the binder they belong to.

Target: T1, Human CD3eg linker (human)
T1 construct: Single-chain construct; also called recombinant human CD3
T1 chain: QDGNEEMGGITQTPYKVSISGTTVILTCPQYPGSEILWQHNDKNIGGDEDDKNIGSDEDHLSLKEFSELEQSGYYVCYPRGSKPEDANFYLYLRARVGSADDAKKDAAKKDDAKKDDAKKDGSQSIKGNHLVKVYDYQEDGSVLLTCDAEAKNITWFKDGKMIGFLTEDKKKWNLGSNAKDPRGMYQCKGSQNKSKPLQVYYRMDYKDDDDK
Test: SPR; fold vs parent H183/L072

B1: H183/L072 VL T92G (antibody, name in Kabat numbering, V domains shown)
VH: QVQLVESGGGLVQPGRSLRLSCAASGFTFSNAWMHWVRQAPGKGLEWVAQIKDKGNAYAAYYAPSVKGRFTISRDDSKNSIYLQMNSLKTEDTAVYYCHYVHYASASTVLPAFGVDAWGQGTTVTVSS
VL: DIVMTQSPLSLPVTPGEPASISCQASQELVHMNRNTYLHWYQQKPGQAPRLLIYKVSNRFPGVPDRFSGSGSGTDFTLKISRVEAEDVGVYYCAQGGSVPFTFGQGTKLEIK
fold change of affinity: 0.2 fold

B3: H183/L072 VL T97M (antibody, name in Kabat numbering, V domains shown)
VH: B1 VH
VL: B1 VL with G97T, T102M
fold change of affinity: 0.7 fold

B4: H183/L072 VL T92L (antibody, name in Kabat numbering, V domains shown)
VH: B1 VH
VL: B1 VL with G97L
fold change of affinity: 0.3 fold

B6: H183/L072 VL T97G (antibody, name in Kabat numbering, V domains shown)
VH: B1 VH
VL: B1 VL with G97T, T102G
fold change of affinity: 1 fold

B8: H183/L072 VL T97I (antibody, name in Kabat numbering, V domains shown)
VH: B1 VH
VL: B1 VL with G97T, T102I
fold change of affinity: 0.5 fold

B10: H183/L072 VL T92H (antibody, name in Kabat numbering, V domains shown)
VH: B1 VH
VL: B1 VL with G97H
fold change of affinity: 0.2 fold

B11: H183/L072 VL T92N (antibody, name in Kabat numbering, V domains shown)
VH: B1 VH
VL: B1 VL with G97N
fold change of affinity: 0.2 fold

B12: H183/L072 VL T92M (antibody, name in Kabat numbering, V domains shown)
VH: B1 VH
VL: B1 VL with G97M
fold change of affinity: 0.3 fold

B13: H183/L072 VL T92Q (antibody, name in Kabat numbering, V domains shown)
VH: B1 VH
VL: B1 VL with G97Q
fold change of affinity: 0 fold

B16: H183/L072 VL T92K (antibody, name in Kabat numbering, V domains shown)
VH: B1 VH
VL: B1 VL with G97K
fold change of affinity: 0.8 fold

B17: H183/L072 VL T97K (antibody, name in Kabat numbering, V domains shown)
VH: B1 VH
VL: B1 VL with G97T, T102K
fold change of affinity: 0.6 fold

B20: H183/L072 VL T97E (antibody, name in Kabat numbering, V domains shown)
VH: B1 VH
VL: B1 VL with G97T, T102E
fold change of affinity: 0.6 fold

B21: H183/L072 VL T92S (antibody, name in Kabat numbering, V domains shown)
VH: B1 VH
VL: B1 VL with G97S
fold change of affinity: 0.5 fold

B25: H183/L072 VL T92R (antibody, name in Kabat numbering, V domains shown)
VH: B1 VH
VL: B1 VL with G97R
fold change of affinity: 0.5 fold

B28: H183/L072 VL T97F (antibody, name in Kabat numbering, V domains shown)
VH: B1 VH
VL: B1 VL with G97T, T102F
fold change of affinity: 0.3 fold

B29: H183/L072 VL T97A (antibody, name in Kabat numbering, V domains shown)
VH: B1 VH
VL: B1 VL with G97T, T102A
fold change of affinity: 0.8 fold

B30: H183/L072 VL T97L (antibody, name in Kabat numbering, V domains shown)
VH: B1 VH
VL: B1 VL with G97T, T102L
fold change of affinity: 0.4 fold

B31: H183/L072 VL T97R (antibody, name in Kabat numbering, V domains shown)
VH: B1 VH
VL: B1 VL with G97T, T102R
fold change of affinity: 0.4 fold

B32: H183/L072 VL T97D (antibody, name in Kabat numbering, V domains shown)
VH: B1 VH
VL: B1 VL with G97T, T102D
fold change of affinity: 0.6 fold

B39: H183/L072 VL T97S (antibody, name in Kabat numbering, V domains shown)
VH: B1 VH
VL: B1 VL with G97T, T102S
fold change of affinity: 1.1 fold

B40: H183/L072 VL T97Q (antibody, name in Kabat numbering, V domains shown)
VH: B1 VH
VL: B1 VL with G97T, T102Q
fold change of affinity: 0.5 fold

B42: H183/L072 VL T97N (antibody, name in Kabat numbering, V domains shown)
VH: B1 VH
VL: B1 VL with G97T, T102N
fold change of affinity: 0.5 fold

B43: H183/L072 VL T97H (antibody, name in Kabat numbering, V domains shown)
VH: B1 VH
VL: B1 VL with G97T, T102H
fold change of affinity: 0.5 fold

B45: H183/L072 VL T92V (antibody, name in Kabat numbering, V domains shown)
VH: B1 VH
VL: B1 VL with G97V
fold change of affinity: 0.4 fold

The remaining lines, values ahead:

fold change of affinity: 0.8 fold
B2: H183/L072 VL V27cT (antibody, name in Kabat numbering, V domains shown)
VH: B1 VH
VL: B1 VL with V30T, G97T

fold change of affinity: 0.4 fold
B5: H183/L072 VL V51G (antibody, name in Kabat numbering, V domains shown)
VH: B1 VH
VL: B1 VL with V56G, G97T

fold change of affinity: 0.3 fold
B7: H183/L072 VL V27cW (antibody, name in Kabat numbering, V domains shown)
VH: B1 VH
VL: B1 VL with V30W, G97T

fold change of affinity: 0.6 fold
B9: H183/L072 VL V51A (antibody, name in Kabat numbering, V domains shown)
VH: B1 VH
VL: B1 VL with V56A, G97T

fold change of affinity: 0.4 fold
B14: H183/L072 VL V27cA (antibody, name in Kabat numbering, V domains shown)
VH: B1 VH
VL: B1 VL with V30A, G97T

fold change of affinity: 1 fold
B15: H183/L072 VL V27cI (antibody, name in Kabat numbering, V domains shown)
VH: B1 VH
VL: B1 VL with V30I, G97T

fold change of affinity: 0 fold
B18: H183/L072 VL V27cS (antibody, name in Kabat numbering, V domains shown)
VH: B1 VH
VL: B1 VL with V30S, G97T

fold change of affinity: 1 fold
B19: H183/L072 VL V27cQ (antibody, name in Kabat numbering, V domains shown)
VH: B1 VH
VL: B1 VL with V30Q, G97T

fold change of affinity: 0.1 fold
B22: H183/L072 VL V27cD (antibody, name in Kabat numbering, V domains shown)
VH: B1 VH
VL: B1 VL with V30D, G97T

fold change of affinity: 0.8 fold
B23: H183/L072 VL V27cL (antibody, name in Kabat numbering, V domains shown)
VH: B1 VH
VL: B1 VL with V30L, G97T

fold change of affinity: 0.7 fold
B24: H183/L072 VL V27cE (antibody, name in Kabat numbering, V domains shown)
VH: B1 VH
VL: B1 VL with V30E, G97T

fold change of affinity: 1.1 fold
B26: H183/L072 VL V27cK (antibody, name in Kabat numbering, V domains shown)
VH: B1 VH
VL: B1 VL with V30K, G97T

fold change of affinity: 0.5 fold
B27: H183/L072 VL V27cY (antibody, name in Kabat numbering, V domains shown)
VH: B1 VH
VL: B1 VL with V30Y, G97T

fold change of affinity: 1.1 fold
B33: H183/L072 VL V27cM (antibody, name in Kabat numbering, V domains shown)
VH: B1 VH
VL: B1 VL with V30M, G97T

fold change of affinity: 0.3 fold
B34: H183/L072 VL V27cN (antibody, name in Kabat numbering, V domains shown)
VH: B1 VH
VL: B1 VL with V30N, G97T

fold change of affinity: 1.2 fold
B35: H183/L072 VL V27cR (antibody, name in Kabat numbering, V domains shown)
VH: B1 VH
VL: B1 VL with V30R, G97T

fold change of affinity: 0 fold
B36: H183/L072 VL V51D (antibody, name in Kabat numbering, V domains shown)
VH: B1 VH
VL: B1 VL with V56D, G97T

fold change of affinity: 0.6 fold
B37: H183/L072 VL T97V (antibody, name in Kabat numbering, V domains shown)
VH: B1 VH
VL: B1 VL with G97T, T102V

fold change of affinity: 0.3 fold
B38: H183/L072 VL V27cH (antibody, name in Kabat numbering, V domains shown)
VH: B1 VH
VL: B1 VL with V30H, G97T

fold change of affinity: 0.5 fold
B41: H183/L072 VL V27cF (antibody, name in Kabat numbering, V domains shown)
VH: B1 VH
VL: B1 VL with V30F, G97T

fold change of affinity: 0.4 fold
B44: H183/L072 VL V51E (antibody, name in Kabat numbering, V domains shown)
VH: B1 VH
VL: B1 VL with V56E, G97T
